The values below come from patent US11994512B2, “Single-cell genomic methods to generate ex vivo cell systems that recapitulate in vivo biology with improved fidelity” (Massachusetts Institute of Technology, priority 2018, dated 2024).

To fix the notation:
B1: P0C027 (protein, UniProt P0C027 1-164, looked up)
chain: MKCKPNQTRTYDPEGFKKRAACLCFRSEREDEVLLVSSSRYPDRWIVPGGGMEPEEEPDGAAVREVYEEAGVKGKLGRLLGVFEQNQDRKHRTYVFVLTVTELLEDWEDSVSIGRKREWFKIEDAIKVLQCHKPVHAEYLEKLKLGGSPTNGNSAAPSPPESEP
modifications: full-length
B2: P19246 (protein, UniProt P19246 1-1090, looked up)
chain: MMSFGSADALLGAPFAPLHGGGSLHYSLSRKAGPGGTRSAAGSSSGFHSWARTSVSSVSASPSRFRGAASSTDSLDTLSNGPEGCVVAAVAARSEKEQLQALNDRFAGYIDKVRQLEAHNRSLEGEAAALRQQQAGRAAMGELYEREVREMRGAVLRLGAARGQLRLEQEHLLEDIAHVRQRLDEEARQREEAEAAARALARFAQEAEAARVELQKKAQALQEECGYLRRHHQEEVGELLGQIQGCGAAQAQAQAEARDALKCDVTSALREIRAQLEGHAVQSTLQSEEWFRVRLDRLSEAAKVNTDAMRSAQEEITEYRRQLQARTTELEALKSTKESLERQRSELEDRHQADIASYQDAIQQLDSELRNTKWEMAAQLREYQDLLNVKMALDIEIAAYRKLLEGEECRIGFGPSPFSLTEGLPKIPSISTHIKVKSEEMIKVVEKSEKETVIVEGQTEEIRVTEGVTEEEDKEAQGQEGEEAEEGEEKEEEEGAAATSPPAEEAASPEKETKSRVKEEAKSPGEAKSPGEAKSPAEAKSPGEAKSPGEAKSPGEAKSPAEPKSPAEPKSPAEAKSPAEPKSPATVKSPGEAKSPSEAKSPAEAKSPAEAKSPAEAKSPAEAKSPAEAKSPAEAKSPATVKSPGEAKSPSEAKSPAEAKSPAEAKSPAEAKSPAEVKSPGEAKSPAEPKSPAEAKSPAEVKSPAEAKSPAEVKSPGEAKSPAAVKSPAEAKSPAAVKSPGEAKSPGEAKSPAEAKSPAEAKSPIEVKSPEKAKTPVKEGAKSPAEAKSPEKAKSPVKEDIKPPAEAKSPEKAKSPVKEGAKPPEKAKPLDVKSPEAQTPVQEEAKHPTDIRPPEQVKSPAKEKAKSPEKEEAKTSEKVAPKKEEVKSPVKEEVKAKEPPKKVEEEKTLPTPKTEAKESKKDEAPKEAPKPKVEEKKETPTEKPKDSTAEAKKEEAGEKKKAVASEEETPAKLGVKEEAKPKEKTETTKTEAEDTKAKEPSKPTETEKPKKEEMPAAPEKKDTKEEKTTESRKPEEKPKMEAKVKEDDKSLSKEPSKPKTEKAEKSSSTDQKESQPPEKTTEDKATKGEK
modifications: full-length
B3: P11725 (protein, UniProt P11725 1-354, looked up)
chain: MLSNLRILLNNAALRKGHTSVVRHFWCGKPVQSQVQLKGRDLLTLKNFTGEEIQYMLWLSADLKFRIKQKGEYLPLLQGKSLGMIFEKRSTRTRLSTETGFALLGGHPSFLTTQDIHLGVNESLTDTARVLSSMTDAVLARVYKQSDLDTLAKEASIPIVNGLSDLYHPIQILADYLTLQEHYGSLKGLTLSWIGDGNNILHSIMMSAAKFGMHLQAATPKGYEPDPNIVKLAEQYAKENGTKLSMTNDPLEAARGGNVLITDTWISMGQEDEKKKRLQAFQGYQVTMKTAKVAASDWTFLHCLPRKPEEVDDEVFYSPRSLVFPEAENRKWTIMAVMVSLLTDYSPVLQKPKF
modifications: full-length
B4: P19467 (protein, UniProt P19467 1-573, looked up)
chain: MKGFLLLSLSLLLVTVGSSSQASSTTSSSGGTSPPTTVQSQSPGSSSQASTTTSSSGGASPPTTVQSQSPGSSSQASTTTSSSGGASPPTTVQSQSPGSSSQASTTTSSSGGASPPTTVQSQSPGSSSQASTTTSSSGGASPPTTVQSQSPGSSSQASTTTSSSGGASPPTTVQSQSPGSSSQVSTTTSSSGGASPPTTVQSQSPGSSSQPGPTQPSGGASSSTVPSGGSTGPSDLCNPNPCKGTASCVKLHSKHFCLCLEGYYYNSSLSSCVKGTTFPGDISMSVSETANLEDENSVGYQELYNSVTDFFETTFNKTDYGQTVIIKVSTAPSRSARSAMRDATKDVSVSVVNIFGADTKETEKSVSSAIETAIKTSGNVKDYVSINLCDHYGCVGNDSSKCQDILQCTCKPGLDRLNPQVPFCVAVTCSQPCNAEEKEQCLKMDNGVMDCVCMPGYQRANGNRKCEECPFGYSGMNCKDQFQLILTIVGTIAGALILILLIAFIVSARSKNKKKDGEEQRLIEDDFHNLRLRQTGFSNLGADNSIFPKVRTGVPSQTPNPYANQRSMPRPDY
modifications: full-length
B5: P18242 (protein, UniProt P18242 1-410, looked up)
chain: MKTPGVLLLILGLLASSSFAIIRIPLRKFTSIRRTMTEVGGSVEDLILKGPITKYSMQSSPKTTEPVSELLKNYLDAQYYGDIGIGTPPQCFTVVFDTGSSNLWVPSIHCKILDIACWVHHKYNSDKSSTYVKNGTSFDIHYGSGSLSGYLSQDTVSVPCKSDQSKARGIKVEKQIFGEATKQPGIVFVAAKFDGILGMGYPHISVNNVLPVFDNLMQQKLVDKNIFSFYLNRDPEGQPGGELMLGGTDSKYYHGELSYLNVTRKAYWQVHMDQLEVGNELTLCKGGCEAIVDTGTSLLVGPVEEVKELQKAIGAVPLIQGEYMIPCEKVSSLPTVYLKLGGKNYELHPDKYILKVSQGGKTICLSGFMGMDIPPPSGPLWILGDVFIGSYYTVFDRDNNRVGFANAVVL
modifications: full-length
B6: P23881 (protein, UniProt P23881 1-347, looked up)
chain: MGLEEELLRIAKKLEKMVSRKKTEGALDLLKKLNSCQMSIQLLQTTRIGVAVNGVRKHCSDKEVVSLAKVLIKNWKRLLDSPRTTKGEREEREKAKKEKGLGCSDWKPEAGLSPPRKKGGGEPKTRRDSVDSRSSTTSSPKRPSLERSNSSKSKVETPTTPSSPSTPTFAPAVCLLAPCYLTGDSVRDKCVEMLSAALKAEDNFKDYGVNCDKLASEIEDHIYQELKSTDMKYRNRVRSRISNLKDPRNPGLRRNVLSGAISPELIAKMTAEEMASDELRELRNAMTQEAIREHQMAKTGGTTTDLLRCSKCKKKNCTYNQVQTRSADEPMTTFVLCNECGNRWKFC
modifications: full-length

The test system of one assay is intracellular proteome of ENR+CD and ENR organoids. Put plainly: LC-MS/MS TMT proteomics of ENR+CD versus ENR organoids. The assay is classed as cell-based, C57BL/6 mice. The settings on record: protein abundance, ENR+CD versus ENR organoids; aggregate of the four sample pairs.
B1: the “Average logFC” value is 1.134.
Take B2: the “Average logFC” value came to 1.284.
Still for that read-out and setting: the same measure for B3: −1.477; for B4: 1.199; for B5: 1.296.
Same read-out and setting: the result for B6 reads −1.33.

Still in this assay, the particulars now being: protein abundance, ENR+CD versus ENR organoids; replicate M1-1; log2 ratio.
For B1, the “M1-1 Log2 Median Normalized” value was found to be 1.368.
For the molecule B2, the “M1-1 Log2 Median Normalized” value turned out to be 1.432.
Same read-out and setting: the result for B3 reads −1.478.
Same read-out and setting: the result for B4 reads 1.437; that for B5, 1.508; that for B6, −1.331.

Staying with this assay, now noted: protein abundance, ENR+CD versus ENR organoids; replicate M1-2; log2 ratio.
With B1, the “M1-2 Log2 Median Normalized” value is 1.133.
As to B2, the “M1-2 Log2 Median Normalized” value was 1.357.
As for B3, the “M1-2 Log2 Median Normalized” value was −1.458.
Same read-out and setting: the result for B4 reads 0.978; that for B5, 1.211; that for B6, −1.172.

The same assay, now with this note: protein abundance, ENR+CD versus ENR organoids; replicate M2-1; log2 ratio.
As to B1, the “M2-1 Log2 Median Normalized” value is reported as 0.8135.
Take B2: the “M2-1 Log2 Median Normalized” value is listed as 1.1695.
The same measure, in the same setting: the same measure for B3: −2.2695; for B4: 1.3955; for B5: 0.9875.
For B6, the “M2-1 Log2 Median Normalized” value was −1.7775.

Staying with this assay, now noted: protein abundance, ENR+CD versus ENR organoids; replicate M2-2; log2 ratio.
Turning to B1, the “M2-2 Log2 Median Normalized” value worked out at 1.192.
Turning to B2, the “M2-2 Log2 Median Normalized” value was determined as 1.176.
Still for that read-out and setting: the same measure for B3: −1.132; for B4: 0.984; for B5: 1.479.
Regarding B6, the “M2-2 Log2 Median Normalized” value is given as −1.12.

The same assay, now with this note: up = enriched in ENR+CD, down = enriched in ENR; FDR<0.05 and log fold change cut-off.
B1: the change result was “up”.
On the same count and under the same terms, the same measure for B2: “up”; for B3: “down”.
As to B4, the change entry is “up”.
Still for that read-out and setting: the same measure for B5: “up”.
B6: the change result is listed as “down”.
